Substitutions are numbered along the chain they refer to.
T1: Tau409-426 pS422 peptide (human)
T1 chain: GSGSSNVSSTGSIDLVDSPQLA

B1: Ab3 (antibody, V domains shown)
VH: EVQLVQSGAEVKKPGSSVKVSCKASGFTFTRYWMHWVKERPGHGLEWIGNINPNNGGTDFNEKFKNRVTMTVHKSITTAYMELSRLTSDDSAVYYCARGTGTGAMDYWGQGTLVSVSS
VL: DVVMTQSPLSLPVTLGQPASISCRSSQSLVHNNGITYLYWYQQRPGQSPRLLIYRVSNRFSGVPDRFSGSGSGTDFTLKISRVEAEDVGVYYCFQGTHVPRTFGQGTKLEIK
modifications: non-phosphorylated recombinant tau
B2: Ab1 (antibody, V domains shown)
VH: QVQLVQSGAEVKKSGASVKVSCKASGFTFTRYWMHWVRQAPGQGLEWIGNINPNNGGTDFNEKFKNRVTLIRDTSTTTVFIQLTSLTSEDSAVYYCARGTGTGAMDYWGQGTLVTVSS
VL: B1 VL with V2I, P12S, L15P, Q42L, R44K, R50Q, L109V
B3: Ab8 (antibody, V domains shown)
VH: B2 VH
VL: B1 VL
B4: Ab11 (antibody, V domains shown)
VH: QVQLVQSGAEVKKPGASVKVSCKASGFTFTRYWMHWVKERPGQGLEWMGNINPNNGGTDFNEKFKNRVTMTVHKSTSTVFIQLSSLRSEDTAVYYCARGTGTGAMDYWGQGTSVTVSS
VL: B1 VL
modifications: non-phosphorylated recombinant tau
B5: Ab2 (antibody, V domains shown)
VH: B4 VH with Q6E, Q43H, M70I, T76A, V79A, F80Y, I81M, Q82E, S113T
VL: B1 VL
B6: Ab5 (antibody, V domains shown)
VH: B4 VH
VL: B1 VL with V2I, S7T, L11S, S48P, S72A, S81N, Y92F
B7: Ab6 (antibody, V domains shown)
VH: B4 VH with Q6E, Q43H, M70I, T76A, V79A, F80Y, I81M, Q82E, S113T
VL: B1 VL with V2I, P12S, L15P, Q42L, R44K, R50Q, L109V
B8: Ab9 (antibody, V domains shown)
VH: B1 VH
VL: B1 VL with V2I, P12S, L15P, Q42L, R44K, R50Q, L109V
B9: Ab7 (antibody, V domains shown)
VH: B1 VH with E1Q, S16A, K38R, T77S, R85S, T87R, S115T
VL: B1 VL
modifications: non-phosphorylated recombinant tau
B10: Ab9 (antibody, V domains shown)
VH: B1 VH
VL: B1 VL with V2I, P12S, L15P, Q42L, R44K, R50Q, L109V
modifications: non-phosphorylated recombinant tau
B11: Ab4 (antibody, V domains shown)
VH: B4 VH
VL: B1 VL with V2I, P12S, L15P, Q42L, R44K, R50Q, L109V
modifications: non-phosphorylated recombinant tau
B12: Ab2 (antibody, V domains shown)
VH: B4 VH with Q6E, Q43H, M70I, T76A, V79A, F80Y, I81M, Q82E, S113T
VL: B1 VL
modifications: non-phosphorylated recombinant tau
B13: hV0022 control (antibody, V domains shown)
VH: QVQLQQPGTELVKPGSSVNLSCKASGFTFTRYWMHWVKERPGHGLEWIGNINPNNGGTDFNEKFKNKATLTVHKSSTTVFIQLSSLTSEDSAVYYCARGTGTGAMDYWGQGTSVTVSS
VL: DVVMTQTPLSLPVSLGDQASISCRSSQSLVHNNGITYLYWYLQKPGQSPKLLIYRVSNRFSGVPDRFGGSGSGTDFTLKISRVEAEDLGVYFCFQGTHVPRTFGGGTKLEIK
modifications: enriched paired helical filament tau, hyperphosphorylated
B14: Ab5 (antibody, V domains shown)
VH: B4 VH
VL: B1 VL with V2I, S7T, L11S, S48P, S72A, S81N, Y92F
modifications: enriched paired helical filament tau, hyperphosphorylated
B15: Ab8 (antibody, V domains shown)
VH: B2 VH
VL: B1 VL
modifications: non-phosphorylated recombinant tau
B16: Ab7 (antibody, V domains shown)
VH: B1 VH with E1Q, S16A, K38R, T77S, R85S, T87R, S115T
VL: B1 VL
B17: Ab4 (antibody, V domains shown)
VH: B4 VH
VL: B1 VL with V2I, P12S, L15P, Q42L, R44K, R50Q, L109V
modifications: enriched paired helical filament tau, hyperphosphorylated
B18: Ab6 (antibody, V domains shown)
VH: B4 VH with Q6E, Q43H, M70I, T76A, V79A, F80Y, I81M, Q82E, S113T
VL: B1 VL with V2I, P12S, L15P, Q42L, R44K, R50Q, L109V
modifications: non-phosphorylated recombinant tau
B19: Ab5 (antibody, V domains shown)
VH: B4 VH
VL: B1 VL with V2I, S7T, L11S, S48P, S72A, S81N, Y92F
modifications: non-phosphorylated recombinant tau
B20: Ab3 (antibody, V domains shown)
VH: B1 VH
VL: B1 VL
B21: Ab10 (antibody, V domains shown)
VH: B1 VH
VL: B1 VL with V2I, S7T, L11S, S48P, S72A, S81N, Y92F
B22: Ab10 (antibody, V domains shown)
VH: B1 VH
VL: B1 VL with V2I, S7T, L11S, S48P, S72A, S81N, Y92F
modifications: non-phosphorylated recombinant tau
B23: Ab1 (antibody, V domains shown)
VH: B2 VH
VL: B1 VL with V2I, P12S, L15P, Q42L, R44K, R50Q, L109V
modifications: non-phosphorylated recombinant tau

What was measured:
[1] = biological target: wild type tau (human); assay: ELISA
Chain of wild type tau (human) (P10636 other isoform, or with tags, fused parts or gaps): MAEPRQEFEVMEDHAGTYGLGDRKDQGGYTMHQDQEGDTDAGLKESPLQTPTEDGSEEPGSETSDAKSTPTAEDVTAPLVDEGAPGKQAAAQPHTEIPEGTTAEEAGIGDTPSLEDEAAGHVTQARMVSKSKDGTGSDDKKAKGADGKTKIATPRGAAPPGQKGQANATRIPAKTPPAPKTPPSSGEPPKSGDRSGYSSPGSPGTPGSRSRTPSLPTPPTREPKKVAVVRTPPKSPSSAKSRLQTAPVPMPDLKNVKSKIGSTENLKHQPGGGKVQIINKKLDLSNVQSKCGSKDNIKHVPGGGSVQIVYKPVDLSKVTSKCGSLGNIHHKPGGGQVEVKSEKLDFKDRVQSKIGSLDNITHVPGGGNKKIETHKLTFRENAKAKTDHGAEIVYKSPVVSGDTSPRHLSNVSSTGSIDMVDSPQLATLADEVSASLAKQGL

[2] = biological target: T1, Tau409-426 pS422 peptide; assay: SPR
[3] = biological target: ePHF (human, UniProt P10636); assay: ELISA
Chain of ePHF (P10636 2-758): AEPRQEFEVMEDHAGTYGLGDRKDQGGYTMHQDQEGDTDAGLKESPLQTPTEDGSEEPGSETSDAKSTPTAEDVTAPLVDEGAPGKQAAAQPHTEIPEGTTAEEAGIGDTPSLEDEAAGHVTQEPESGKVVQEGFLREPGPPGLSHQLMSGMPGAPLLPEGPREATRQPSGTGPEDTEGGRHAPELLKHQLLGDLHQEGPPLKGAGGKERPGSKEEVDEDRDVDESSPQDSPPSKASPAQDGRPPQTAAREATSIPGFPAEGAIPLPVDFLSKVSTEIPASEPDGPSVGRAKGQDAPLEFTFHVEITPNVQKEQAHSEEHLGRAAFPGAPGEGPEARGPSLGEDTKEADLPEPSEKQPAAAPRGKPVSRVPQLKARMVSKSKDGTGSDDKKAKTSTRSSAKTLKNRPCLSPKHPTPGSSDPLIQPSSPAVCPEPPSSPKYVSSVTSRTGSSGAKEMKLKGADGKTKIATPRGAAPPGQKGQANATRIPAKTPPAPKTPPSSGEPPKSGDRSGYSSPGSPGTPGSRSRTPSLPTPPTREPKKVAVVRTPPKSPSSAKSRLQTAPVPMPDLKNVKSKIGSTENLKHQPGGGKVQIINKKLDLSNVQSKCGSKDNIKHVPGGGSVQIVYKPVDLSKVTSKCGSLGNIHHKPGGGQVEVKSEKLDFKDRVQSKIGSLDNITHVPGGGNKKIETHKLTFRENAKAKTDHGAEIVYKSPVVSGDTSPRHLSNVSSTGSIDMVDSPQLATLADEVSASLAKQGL

Row | Binder | binding result [1] | Kd [2] | also measured
1 | B1 | no binding | – | –
2 | B2 | – | 0.0408 nM | –
3 | B3 | – | 0.0533 nM | –
4 | B4 | no binding | – | –
5 | B5 | – | 0.0386 nM | –
6 | B6 | – | 0.0294 nM | –
7 | B7 | – | 0.0398 nM | –
8 | B8 | – | 0.0763 nM | –
9 | B9 | no binding | – | –
10 | B10 | no binding | – | –
11 | B11 | no binding | – | –
12 | B12 | no binding | – | –
13 | B13 | – | – | EC50 [3]: 0.08 nM
14 | B14 | – | – | EC50 [3]: 0.19 nM
15 | B15 | no binding | – | –
16 | B16 | – | 0.0398 nM | –
17 | B17 | – | – | EC50 [3]: 0.18 nM
18 | B18 | no binding | – | –
19 | B19 | no binding | – | –
20 | B20 | – | 0.0457 nM | –
21 | B21 | – | 0.0436 nM | –
22 | B22 | no binding | – | –
23 | B23 | no binding | – | –

Source: patent US20260356924 (published 2026)
